Consider five substances from PMC6508891.

Assay [1] addresses recombinant human VWF A3 domain with His tag (human). The assay can be described thus: SPR; BIAcore 3000; VWF A1A2A3 or single A domain amine-coupled to CM5; C3 or C4 perfused at 0-2.0 μM; 10 mM HEPES, 150 mM NaCl, 0.005% Tween-20, pH 7.4, 25°C, 10 µL/min; 1:1 Langmuir and shift baseline models. In general terms: In SPR one partner is held on a chip, and binding of the other changes the refractive index at the surface.

Assay [2] addresses recombinant human VWF A1 domain with His tag (human). The assay is described as above.
Assay [3] has as its target recombinant human VWF A1A2A3 triple domain with His tag (human). The description is as above.
Assay [4] deals with purified human complement component C3 (human) (UniProt P01024). The experiment in a line: SPR; BIAcore 3000; C3 or C4 amine-coupled to CM5; VWF A1A2A3 or single A domain perfused at 0-2.0 μM; 10 mM HEPES, 150 mM NaCl, 0.005% Tween-20, pH 7.4, 25°C, 10 µL/min; 1:1 Langmuir and shift baseline models.
Assay [5] addresses purified human complement component C4 (human). The description is as above.

On to “purified human complement component C3 (from UniProt P01024 23-667; P01024 672-1663) (natural protein)”, for which the Kd was found to be 137 nM in assay [1], 252 nM in assay [2] and 661 nM in assay [3].
With “purified human complement component C4 (natural protein)”, the figures for the Kd in assay [1], in assay [2] and in assay [3] were over 2000 nM, 139 nM and over 2000 nM, respectively.
Turning to “recombinant human VWF A1 domain with His tag (domain or fragment)”, the results for the Kd in assay [4] and in assay [5] were over 2000 nM and 504 nM, respectively.
For the substance “recombinant human VWF A1A2A3 triple domain with His tag (domain or fragment)”, the Kd is 232 nM in assay [4] and 523 nM in assay [5].
As for “recombinant human VWF A3 domain with His tag (domain or fragment)”, the Kd in assay [4] was 100 nM; in assay [5] it was over 2000 nM.

A word on the Kd: it is the constant that tells how readily two partners part at equilibrium.
